The numbers were not newly measured in article PMC10818705, which cites them from elsewhere.

This series has as its target Tyr109 (UniProt position 129, EGEHFYFFCTF).

One may read the pKa as the negative logarithm of the acid dissociation constant. With “Azurin, His107/Tyr109 (Lys122) hopping variant (Pseudomonas aeruginosa; W48F;Y72F;Y108F;H83Q;Q107H;M109Y)”, the pKa is 10.2 ± 0.3.
